# Data as given in patent publication US20220259318A1 (Hoffmann-La Roche, published 2022).
# Changes are numbered by the printed parent chain. “And” between values parts separate entries of the source, which are not always exact repeats. Equal entries are not always repeated.
# B1: P1AE5739 (antibody, V domains shown)
# VH: EVQLVESGGGVVQPGRSLRLSCAASGFSFSNYGMAWVRQAPGKGLEWVASISTGGGNTYYRDSVKGRFTISRDNAKNTLYLQMNSLRAEDTAVYYCTRHDRGGLYWGQGTMVTVSS
# VL: DIVMTQSPLSLPVTPGEPASISCRSSKSLLHSNGITYVYWYLQKPGQSPQVLIYRMSNLASGVPDRFSGSGSGTDFTLKISRVEAEDVGVYHCGQLLENPYTFGQGTKLEIK
# notes: Humanized 5F11 IgG; PGLALA Fc implied by the CAR-J assay; also called 5F11_VH1b + 5F11_VL1a
# B2: P1AE5751 (antibody, V domains shown)
# VH: B1 VH with R61A
# VL: B1 VL with Q47K
# notes: Humanized 5F11 IgG; PGLALA Fc implied by the CAR-J assay; also called 5F11_VH1d + 5F11_VL1b
# B3: P1AE5756 (antibody, V domains shown)
# VH: B1 VH with V11L, R16G
# VL: B1 VL with Q47K
# notes: Humanized 5F11 IgG; PGLALA Fc implied by the CAR-J assay; also called 5F11_VH2b + 5F11_VL1b
# B4: P1AE5746 (antibody, V domains shown)
# VH: B1 VH with E1Q, R61A, A75S
# VL: B1 VL with V51L, L59R
# notes: Humanized 5F11 IgG; PGLALA Fc implied by the CAR-J assay; also called 5F11_VH1c + 5F11_VL2a
# B5: P1AE5736 (antibody, V domains shown)
# VH: B1 VH with E1Q, A75S
# VL: B1 VL with V51L, L59R
# notes: Humanized 5F11 IgG; PGLALA Fc implied by the CAR-J assay; also called 5F11_VH1a + 5F11_VL2a
# B6: P1AE5761 (antibody, V domains shown)
# VH: B1 VH with V11L, R16G, R61A
# VL: B1 VL with Q47K
# notes: Humanized 5F11 IgG; PGLALA Fc implied by the CAR-J assay; also called 5F11_VH2d + 5F11_VL1b
# B7: P1AE5734 (antibody, V domains shown)
# VH: B1 VH with E1Q, A75S
# VL: B1 VL
# notes: Humanized 5F11 IgG; PGLALA Fc implied by the CAR-J assay; also called 5F11_VH1a + 5F11_VL1a
# B8: P1AE5735 (antibody, V domains shown)
# VH: B1 VH with E1Q, A75S
# VL: B1 VL with Q47K
# notes: Humanized 5F11 IgG; PGLALA Fc implied by the CAR-J assay; also called 5F11_VH1a + 5F11_VL1b
# B9: P1AE5740 (antibody, V domains shown)
# VH: B1 VH
# VL: B1 VL with Q47K
# notes: Humanized 5F11 IgG; PGLALA Fc implied by the CAR-J assay; also called 5F11_VH1b + 5F11_VL1b
# B10: P1AE5757 (antibody, V domains shown)
# VH: B1 VH with V11L, R16G
# VL: B1 VL with V51L, L59R
# notes: Humanized 5F11 IgG; PGLALA Fc implied by the CAR-J assay; also called 5F11_VH2b + 5F11_VL2a
# B11: P1AE5760 (antibody, V domains shown)
# VH: B1 VH with V11L, R16G, R61A
# VL: B1 VL
# notes: Humanized 5F11 IgG; PGLALA Fc implied by the CAR-J assay; also called 5F11_VH2d + 5F11_VL1a
# B12: P1AE5750 (antibody, V domains shown)
# VH: B1 VH with R61A
# VL: B1 VL
# notes: Humanized 5F11 IgG; PGLALA Fc implied by the CAR-J assay; also called 5F11_VH1d + 5F11_VL1a
# B13: P1AE5755 (antibody, V domains shown)
# VH: B1 VH with V11L, R16G
# VL: B1 VL
# notes: Humanized 5F11 IgG; PGLALA Fc implied by the CAR-J assay; also called 5F11_VH2b + 5F11_VL1a
# B14: P1AE5752 (antibody, V domains shown)
# VH: B1 VH with R61A
# VL: B1 VL with V51L, L59R
# notes: Humanized 5F11 IgG; PGLALA Fc implied by the CAR-J assay; also called 5F11_VH1d + 5F11_VL2a
# Target: T1, human GPRC5D (human, UniProt Q9NZD1 1-345)
# T1 sequence (Q9NZD1 whole entry): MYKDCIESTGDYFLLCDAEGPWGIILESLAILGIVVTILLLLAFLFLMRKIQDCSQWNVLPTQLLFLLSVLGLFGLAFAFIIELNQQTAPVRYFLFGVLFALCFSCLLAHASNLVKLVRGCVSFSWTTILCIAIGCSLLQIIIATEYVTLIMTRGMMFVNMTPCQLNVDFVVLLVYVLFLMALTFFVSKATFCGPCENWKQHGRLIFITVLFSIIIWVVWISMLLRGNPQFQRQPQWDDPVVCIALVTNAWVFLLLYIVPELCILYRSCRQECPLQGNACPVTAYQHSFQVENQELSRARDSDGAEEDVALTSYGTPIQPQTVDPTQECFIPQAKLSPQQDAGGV
# Test: cell-based or functional assay
row,Binder,"CAR-J2 EC50 [ng/mL] (PGLALA-CAR-J activation, L363 target cells)"
1,B1,23.5
2,B2,6.44
3,B3,170
4,B4,514
5,B5,1.38
6,B6,74.6
7,B7,41.5
8,B8,82.1
9,B9,8.96
10,B10,145
11,B11,190
12,B12,20.6
13,B13,152
14,B14,509

# Target: T1, human GPRC5D
# Test: cell ELISA, CHO hu GPRC5D (EC/IC50 rel)
# Protocol: Stable transfected CHO clones expressing either human GPRCSD or cynomolgus GPRCSD or murine GPRCSD or human GPRCSA were used to analyze the binding of potential lead candidate antibodies as IgGs. In detail, 10⁴ cells (viability≥98%) were seeded into 384 well-microtiter plates (BD Poly D-Lysin, #356662, volume: 25 μl/well) using fresh culture medium. After overnight incubation at 37° C., 25 μl/well dilutions of antibodies were added (15×1:3 dilutions in 1×PBS, assay conc. starts at 30 μg/ml) to the cells for 2 hours at 4° C. After one washing step using 90 μl/well PBST (10×PBS, Roche, #11666789001+0.1% Tween 20), cells were subsequently fixed by the addition of 50 μl/well 0.05% glutaraldehyde (Sigma Cat. No: G5882 in 1×PBS) for 10 min at room temperature (RT). After three additional washing steps using 90 μl/well PBST, secondary antibodies were added for detection: for human antibodies goat anti-human Ig a chain antibody HRP conjugate (Millipore #AP502P) diluted 1:2000 in blocking buffer (1×PBS (Roche #11666789001)+2% BSA (Bovine Serum Albumin Fraction V, fatty acid free, Roche, #10735086001)+0.05% Tween 20) was used (25 μl/well). […] After incubation for 1 h at RT and three additional washing steps using 90 μl/well PBST, 25 μl/well TMB substrate was added (Roche order no. 11835033001) for 10 min and color development to final ODs was determined by measurement at 370 nm/492 nm.
# For the characterization of the humanization variants of the VH and VL domains of the GPRC5D binders the ELISA protocol as described above was used (see Example 7). The data are summarized in the table 10 for the humanization variants of 5E11 and in table 11 for the humanization variants of 5F11.
row,Binder,EC50
1,B1,0.004 µg/mL and 0.03 nM
2,B2,0.0124 µg/mL and 0.08 nM
3,B3,0.0078 µg/mL and 0.05 nM
4,B4,0.0107 µg/mL and 0.07 nM
5,B5,0.0037 µg/mL and 0.02 nM
6,B6,0.0037 µg/mL and 0.02 nM
7,B7,0.0055 µg/mL and 0.04 nM
8,B8,0.0066 µg/mL and 0.04 nM
9,B9,0.0063 µg/mL and 0.04 nM
10,B10,0.0029 µg/mL and 0.02 nM
11,B11,0.004 µg/mL and 0.03 nM
12,B12,0.0094 µg/mL and 0.06 nM
13,B13,0.0078 µg/mL and 0.05 nM
14,B14,0.0062 µg/mL and 0.04 nM
